Measured values from US8734776B2 (ZymoGenetics, Inc., priority 2003, dated 2014).
Like-named read-outs stand apart in the source and are kept apart here.

Experiments:
influenza virus = format: cell-based; settings: Influenza (type A [H3N2])
adenoviral vector, AdGFP = test: Adenoviral (AdGFP) liver pathology in mice; format: in vivo, mouse; settings: C57Bl/6 mice
Protocol: When injected intravenously, these viruses primarily target the liver for gene expression. The adenoviruses are replication deficient, but cause liver damage due to inflammatory cell infiltrate that can be monitored by measurement of serum levels of liver enzymes like AST and ALT, or by direct examination of liver pathology.
C57B116 mice were given once daily intraperitoneal injections of 50 μg mouse IL-28 (zcyto24 as shown in SEQ ID NO:8) or metIL-29C172S—PEG for 3 days. Control animals were injected with PBS. One hour following the 3rd dose, mice were given a single bolus intravenous tail vein injection of the adenoviral vector, AdGFP (1×10^9 plaque-forming units (pfu)). Following this, every other day mice were given an additional dose of PBS, mouse IL-28 or metIL-29C172S—PEG for 4 more doses (total of 7 doses). One hour following the final dose of PBS, mouse IL-28 or metIL-29C172S—PEG mice were terminally bleed and sacrificed. The serum and liver tissue were analyzed. Serum was analyzed for AST and ALT liver enzymes. Liver was isolated and analyzed for GFP expression and histology. For histology, liver specimens were fixed in formalin and then embedded in paraffin followed by H&E staining. Sections of liver that had been blinded to treat were examined with a light microscope. Changes were noted and scored on a scale designed to measure liver pathology and inflammation.

adenovirus = format: cell-based; settings: A549 cells
[1] = tested on: respiratory syncytial virus; format: cell-based; settings: MA-104 cells
coxsackie virus = format: cell-based; settings: Coxsackie B4 virus, KB cells
rhino virus = format: cell-based
[2] = tested on: ISG gene expression (OAS, Pkr, Mx1); test: ISG gene induction in liver, spleen and blood of injected mice; format: in vivo, mouse; settings: for OAS (24 hr): mice, expression relative to internal HPRT; for OAS- 1 hr: 1 hr after single injection of 250 μg i.v.; for OAS- 1 hr / OAS-6 hr / OAS-24 hr / OAS-48 hr: average of 5 animals; for OAS-6 hr: 6 hr after single injection of 250 μg i.v.; for OAS-24 hr: 24 hr after single injection of 250 μg i.v.; for OAS-48 hr: 48 hr after single injection of 250 μg i.v.
Protocol: In addition, E. coli derived IL-29 was also tested in in vivo assays as described above using MetIL-29C172S-PEG and MetIL-29-PEG. At various time points and at different doses, ISG gene induction was measured in the blood, spleen and livers of the mice.
Mice were sacrificed at various time points (1 hr-48 hr). Spleens and livers were isolated from mice, and RNA was isolated. RNA was also isolated from the blood cells. The cells were pelleted and RNA isolated from pellets using RNAEasy®-kit (Qiagen). RNA was treated with DNase (Amicon) to rid RNA of any contaminating DNA. cDNA was generated using Perkin-Elmer RT mix (Perkin-Elmer). ISG gene induction was measured by real-time PCR using primers and probes specific for mouse OAS, Pkr and M×1. To obtain quantitative data, HPRT real-time PCR was duplexed with ISG PCR. A standard curve was calculated using known amounts of IFN-stimulated mouse PBLs. All data are shown as expression relative to internal HPRT expression.
Results shown are fold expression relative to HPRT gene expression. […] The data shown is the average expression from 5 different animals/group.
Data shown is fold expression over HPRT expression from livers of mice. Similar data was obtained from blood and spleens of mice.

west nile virus = format: cell-based; settings: Vero cells
dengue virus = format: cell-based; settings: Vero cells
[3] = Maden-Darby Canine Kidney cells

B1: IL-29: human IL-29, previously designated zcyto21, SEQ ID NO:4 (protein, listed as Homo sapiens)
chain: MAAAWTVVLVTLVLGLAVAGPVPTSKPTTTGKGCHIGRFKSLSPQELASFKKARDALEESLKLKNWSCSSPVFPGNWDLRLLQVRERPVALEAELALTLKVLEAAAGPALEDVLDQPLHTLHHILSQLQACIQPQPTAGPRPRGRLHHWLHRLQEAPKKESAGCLEASVTFNLFRLLTRDLKYVADGNLCLRTSTHPEST
modifications: SIGNAL (1)...(19)
- EC50 NR (influenza virus; [3]): >10 µg/mL
- IC50 NR (influenza virus; [3]): >10 µg/mL
- EC50 NR (influenza virus; Vero cells): 2 µg/mL
- IC50 NR (influenza virus; Vero cells): >10 µg/mL
- liver histology: liver and inflammation scores versus PBS-treated group (adenoviral vector, AdGFP): lower liver and inflammation scores
- liver histology: sinusoidal cells, mitotic figures, hepatocyte changes versus PBS treatment group (adenoviral vector, AdGFP): less proliferation of sinusoidal cells, fewer mitotic figures and fewer changes in the hepatocytes
- average serum AST (adenoviral vector, AdGFP; 50 μg i.p., 7 doses, n=8): 162 U/L
- serum ALT (adenoviral vector, AdGFP; 50 μg i.p., 7 doses, n=8): 184 U/L
- EC50 NR (adenovirus): >10 µg/mL
- IC50 NR (adenovirus): >10 µg/mL
- EC50 NR [1]: >10 µg/mL
- IC50 NR [1]: >10 µg/mL
- EC50 Visual (coxsackie virus): >10 µg/mL
- IC50 Visual (coxsackie virus): >10 µg/mL
- EC50 NR (rhino virus; Rhino 2, KB cells): >10 µg/mL
- IC50 NR (rhino virus; Rhino 2, KB cells): >10 µg/mL
- EC50 NR (rhino virus; Rhino 9, HeLa cells): 0.982 µg/mL
- IC50 NR (rhino virus; Rhino 9, HeLa cells): >10 µg/mL
- time of peak expression of ISGs after injection ([2]; C57BL/6 mice): 1 to 6 h
- ISG gene expression (OAS, Pkr, Mx1) in the livers, spleen and blood of mice ([2]; C57BL/6 mice, i.p or i.v, 10 μg-250 μg): induced ISG gene expression
- OAS (24 hr) ([2]; injection 10 μg): 3.7
- OAS (24 hr) ([2]; injection 50 μg): 4.2
- OAS (24 hr) ([2]; injection 250 μg): 6
- OAS- 1 hr ([2]; mouse blood): 12 fold expression relative to HPRT gene expression
- OAS-6 hr ([2]; mouse blood): 18 fold expression relative to HPRT gene expression
- OAS-24 hr ([2]; mouse blood): 11 fold expression relative to HPRT gene expression
- OAS-48 hr ([2]; mouse blood): 10 fold expression relative to HPRT gene expression
- OAS- 1 hr ([2]; mouse liver): 2.5 fold expression relative to HPRT gene expression
- OAS-6 hr ([2]; mouse liver): 4 fold expression relative to HPRT gene expression
- OAS-24 hr ([2]; mouse liver): 2.5 fold expression relative to HPRT gene expression
- OAS-48 hr ([2]; mouse liver): 2.8 fold expression relative to HPRT gene expression
- OAS- 1 hr ([2]; mouse spleen): 4 fold expression relative to HPRT gene expression
- OAS-6 hr ([2]; mouse spleen): 6 fold expression relative to HPRT gene expression
- OAS-24 hr ([2]; mouse spleen): 3.2 fold expression relative to HPRT gene expression
- OAS-48 hr ([2]; mouse spleen): 3.2 fold expression relative to HPRT gene expression
- EC50 NR (west nile virus): 0.25 ng/mL
- IC50 NR (west nile virus): >10 µg/mL
- EC50 NR (dengue virus): 0.05 µg/mL
- IC50 NR (dengue virus): >10 µg/mL
